Source: patent US6333167

Columns and labels:
[1] = biological target: LacI-SREBP2 fusion protein encoded by pCMV-ISRP (human (SREBP2 portion))
[2] = biological target: APP-LacI fusion protein encoded by pCMV-APPI (Artificial Sequence)

| Substance | luciferase activity in the repressor release assay (pRSVO-luc reporter, CHO-K1 cells) (fold reduction) [1] | luciferase activity in the repressor release assay (pRSVO-luc reporter, CHO-K1 cells) (fold reduction) [2] |
| --- | --- | --- |
| Site-2 protease (S2P) (enzyme) | 100 |  |
| γ-secretase (enzyme) |  | 35 |
